T1: GFP-BAF (full length BAF) (UniProt O75531 1-89)
T1 sequence (looked up): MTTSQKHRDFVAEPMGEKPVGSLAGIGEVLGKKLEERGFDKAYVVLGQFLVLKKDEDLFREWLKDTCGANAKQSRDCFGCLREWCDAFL

B1: Human WT emerin fragment from amino acid 1 to amino acid 187 (EmN) (domain or fragment, UniProt P50402 1-187, looked up)
chain: MDNYADLSDTELTTLLRRYNIPHGPVVGSTRRLYEKKIFEYETQRRRLSPPSSSAASSYSFSDLNSTRGDADMYDLPKKEDALLYQSKGYNDDYYEESYFTTRTYGEPESAGPSRAVRQSVTSFPDADAFHHQVHDDDLLSSSEEECKDRERPMYGRDSAYQSITHYRPVSASRSSLDLSYYPTSSS
B2: Human WT emerin fragment from amino acid 67 to amino acid 221 (EmC) (domain or fragment, UniProt P50402 67-221, looked up)
chain: TRGDADMYDLPKKEDALLYQSKGYNDDYYEESYFTTRTYGEPESAGPSRAVRQSVTSFPDADAFHHQVHDDDLLSSSEEECKDRERPMYGRDSAYQSITHYRPVSASRSSLDLSYYPTSSSTSFMSSSSSSSSWLTRRAIRPENRAPGAGLGQDR
B3: Human wild-type lamin A/C fragment from amino acid 411 to amino acid 566 (LamIgF) (domain or fragment, UniProt P02545 411-566, looked up)
chain: GGGSVTKKRKLESTESRSSFSQHARTSGRVAVEEVDEEGKFVRLRNKSNEDQSMGNWQIKRQNGDDPLLTYRFPPKFTLKAGQVVTIWAAGAGATHSPPTDLVWKAQNTWGCGNSLRTALINSTGEEVAMRKLVRSVTVVEDDEDEDGDDLLHHHH
B4: FLAG-mature lamin A (aa 1 to aa 646) A529V (natural protein, UniProt P02545 1-646, looked up)
chain: METPSQRRATRSGAQASSTPLSPTRITRLQEKEDLQELNDRLAVYIDRVRSLETENAGLRLRITESEEVVSREVSGIKAAYEAELGDARKTLDSVAKERARLQLELSKVREEFKELKARNTKKEGDLIAAQARLKDLEALLNSKEAALSTALSEKRTLEGELHDLRGQVAKLEAALGEAKKQLQDEMLRRVDAENRLQTMKEELDFQKNIYSEELRETKRRHETRLVEIDNGKQREFESRLADALQELRAQHEDQVEQYKKELEKTYSAKLDNARQSAERNSNLVGAAHEELQQSRIRIDSLSAQLSQLQKQLAAKEAKLRDLEDSLARERDTSRRLLAEKEREMAEMRARMQQQLDEYQELLDIKLALDMEIHAYRKLLEGEEERLRLSPSPTSQRSRGRASSHSSQTQGGGSVTKKRKLESTESRSSFSQHARTSGRVAVEEVDEEGKFVRLRNKSNEDQSMGNWQIKRQNGDDPLLTYRFPPKFTLKAGQVVTIWAAGAGATHSPPTDLVWKAQNTWGCGNSLRTVLINSTGEEVAMRKLVRSVTVVEDDEDEDGDDLLHHHHGSHCSSSGDPAEYNLRSRTVLCGTCGQPADKASASGSGAQVGGPISSGSSASSVTVTRSYRSVGGSGGGSFGDNLVTRSY
B5: FLAG-mature lamin A (aa 1 to aa 646) K542N (natural protein, UniProt P02545 1-646, looked up)
chain: B4 chain with V529A, K542N
B6: FLAG-mature lamin A (aa 1 to aa 646) R435C (natural protein, UniProt P02545 1-646, looked up)
chain: B4 chain with R435C, V529A
B7: FLAG-mature lamin A (aa 1 to aa 646) R527H (natural protein, UniProt P02545 1-646, looked up)
chain: B4 chain with R527H, V529A

The target of data set [1] is Human Barrier-to-Autointegration Factor (BAF) with all cysteines mutated in alanine (human) (UniProt O75531). The experiment in a line: ITC.
For data set [2] the target is unchanged. The experiment in a line: crystal structure.
For data set [3] the target is unchanged. The experiment in a line: ITC. The source holds these as a separate data set.
Data set [4] deals with the molecule itself. The experiment in a line: negative-staining electron microscopy.
Data set [5] addresses B1. The experiment in a line: NMR titration.
Data set [6] addresses T1, GFP-BAF (full length BAF). The experiment in a line: proximity ligation.

Where a chain is given by its changes, count along the chain named. In names and notes the source's numbering stands.

Regarding “LamIgF mutant A529V (from UniProt P02545 411-566) (domain or fragment)”, the fold decrease of affinity against LamIgF WT in data set [1] came out at 5 fold.
In turn, “Human Barrier-to-Autointegration Factor (BAF) with all cysteines mutated in alanine (from UniProt O75531 2-76) (natural protein)” came in with a stoichiometry N in data set [2] of 2.
As to “LamIgF mutant R471C (from UniProt P02545 411-566) (domain or fragment)”, the fold decrease of affinity against LamIgF WT in data set [1] was 5 fold.
The molecule B1 displayed a Kd in data set [3] of 700 nM. Also, the binding result in data set [4] is given as “binds”.
For B2, the binding result in data set [4] is listed as “binds”.
For B3, the binding result in data set [5] was “binds”.
For B4, the “PLA signals as percent of WT lamin A” value in data set [6] is ~50 % of WT.
Still for that read-out and setting: to B5 belongs ~50 % of WT.
Still for that read-out and setting: the result for B6 reads ~50 % of WT.
On the same count and under the same terms, to B7 belongs ~50 % of WT.

These data come from paper PMC6212729 (Nucleic Acids Research, 2018).
